Consider 41 variants from the RNAGym collection of RNA variant scans (doi:10.7554/elife.90254).

First the molecules themselves.
B1: OR4K15 (parent)
chain: GUUAACGGUCAUAGGCCAUGGAAACUAGGAGCACCAUUUCGCUGCCAGUGAAGAAAUGAACAAAGAAAAUCUGGGCCAGGCAGGCAUCAAAAGAAAUAGUCUUGCGCUCAACCAGAAAGUCUGUAAUCAUUUUAAGGGUA

Variants of B1 are the subject of the data set. Kind of data set: self-cleavage, relative activity (ratio to wild type); higher = more cleavage; in vitro, sequencing; the parent is a self-cleaving ribozyme.
For the variant GUUAACGGUCAUAGGCCAUGGAAACUAGGAGCACCAUUUCGCUGCCAGUGAAGAAAUGAACAAAGAAAAUCUGGGCCAGGCAGGCAUCAAAAGGAAUAGUCUUGCGCUCAACCAGAAAGUCUGUAAUCAUUUUGAGGGUA [A94G A134G], the self-cleavage was 1.03.

For GUUAACGGUCAUAGGCCAUGGAAACUAGGAGCACCAUUUCGCUGCCAGAGGAGAAAUGAACAAAGAAAAUCUGGGCCAGGCAGGCAUCAAAAGAAAUAGUCUUGCGCUCAACCAGAAAGUCUGUAAUCAUUUUAAGGGUA [U49A A51G], the self-cleavage was 1.02.

Regarding GUUAACGGUCAUAGGCCAUGGAAACUAGGAGCACCAUUUCGCUGCCAGUGAAGAAAUGAACAAAGAAAAUCUGGGCCGGGCAGGCAUCAAAAGAAAUAGUCUUGCGCUCAACCAGAAAGUCUGUAAUCAUCUUAAGGGUA [A78G U131C], the self-cleavage was 0.07.

On to GUUAACGGUCAUAGGCCAUGGAAACUAGGAGCACCAUUUCGCUGCCAGUGAAGAAAUGAACAAAGAAAAUCUGAGCCAGGCAGGCAUCAAAAGAAAUAGUCUUGCGCUCAACCAGAAAGUCUGUAACCAUUUUAAGGGUA [G74A U127C], for which the self-cleavage worked out at 0.02.

For the variant GUUAACGGUCAUAGGCCAUGGAAACUAGGAGCACCAUUUCGCUGCCAGUGAAGAAUUGAACAAAGAAAAUCUGGGCCAGGCAGGCAUCAAAAGAAAUAGUCUUGCGCUCAACCAGAAAGUCUGUAAUCACUUUAAGGGUA [A56U U130C], the self-cleavage came out at 0.34.

Turning to GUUAACGGUCAUAGGCCAUGGAAACUAGGAACACCAUCUCGCUGCCAGUGAAGAAAUGAACAAAGAAAAUCUGGGCCAGGCAGGCAUCAAAAGAAAUAGUCUUGCGCUCAACCAGAAAGUCUGUAAUCAUUUUAAGGGUA [G31A U38C], the self-cleavage is 1.93.

For the variant GUUAACGGUCAUAGGCCAUGGAAACUAGGAGCACCAUAUCGCUGCCAGUGAAGAAAUGAACAAAGAAAAUCUGGGCCAGGCAGGCAUCAAAAGAAAUAGUCCUGCGCUCAACCAGAAAGUCUGUAAUCAUUUUAAGGGUA [U38A U102C], the self-cleavage is 1.99.

GUAAACGGUCAUAGGCCAUGGAAACUAGGGGCACCAUUUCGCUGCCAGUGAAGAAAUGAACAAAGAAAAUCUGGGCCAGGCAGGCAUCAAAAGAAAUAGUCUUGCGCUCAACCAGAAAGUCUGUAAUCAUUUUAAGGGUA [U3A A30G]: the self-cleavage was 0.63.

On to GUUAACGGUCAUAGGCCAUGGAAACUAGGACCACCAUUUCGCUGCCAGUGAAGAAAUGAACAAAGAAAAUCUGGGCCAGGCAGGCACCAAAAGAAAUAGUCUUGCGCUCAACCAGAAAGUCUGUAAUCAUUUUAAGGGUA [G31C U87C], for which the self-cleavage amounted to 2.1.

GUUAACGGUCAUAGGCCAUGGAAACUAGGAGCACCAUUUCGCUGCCAGUGAAGAAAUGAACAGAGAAAAUCUGGGCCAGGCAGGCAUCAAAAGAAAUAGUCUAGCGCUCAACCAGAAAGUCUGUAAUCAUUUUAAGGGUA [A63G U103A]: the self-cleavage came to 0.88.

As to GUUAACGGUCAUAGGCCAUGGAAACUAGGAGCACCAUUUCGCUGCCAGUGAAGAAAUGAACAGAGAAAAUCUGGGCCAGGCAGGCAUCAAAAGAAAUAGCCUUGCGCUCAACCAGAAAGUCUGUAAUCAUUUUAAGGGUA [A63G U100C], the self-cleavage was 2.31.

For the variant GUUAACGGUCAUAGGCCAUGGAAACUAGGAGCACCAUUUCGCUGCCCGGGAAGAAAUGAACAAAGAAAAUCUGGGCCAGGCAGGCAUCAAAAGAAAUAGUCUUGCGCUCAACCAGAAAGUCUGUAAUCAUUUUAAGGGUA [A47C U49G], the self-cleavage worked out at 1.78.

As to GUUAACGGUCAUAGGCCAUGGAAACUAGGUGCACCAUUUCGCUGCCAGUGAAGAAAUGAACAAAGAAAAUCUGGGCCAGGUAGGCAUCAAAAGAAAUAGUCUUGCGCUCAACCAGAAAGUCUGUAAUCAUUUUAAGGGUA [A30U C81U], the self-cleavage came out at 0.51.

As for GUUAACGGUCAUAGGCCAUGGAAACUAGGAGCACCAUUUCGCUGCCAGUGAAGAAAUGAACAAAGAAAAUCUGGGCCAGGCAGGCAUCAAAAGAAAUAGUCUUGCGCUCAACCGGAAAGUCUGUAUUCAUUUUAAGGGUA [A114G A126U], the self-cleavage was found to be 0.46.

Turning to GUUAACGGUCAUAGGCCAUGGAAACUAGGAGCACCAUUUCGCAGCCAGUGAAGAAAUGAACAAAGAAAAUCUGGGCCAGGCAGGCUUCAAAAGAAAUAGUCUUGCGCUCAACCAGAAAGUCUGUAAUCAUUUUAAGGGUA [U43A A86U], the self-cleavage is 1.7.

Consider GUUAACGGUCAUAGGCCAUGGAAACUAGGAGCACCAUUUCGCUGCCGGUGAAGAAAUGAACAAAGAAAAUCUGGGCCGGGCAGGCAUCAAAAGAAAUAGUCUUGCGCUCAACCAGAAAGUCUGUAAUCAUUUUAAGGGUA [A47G A78G], for which the self-cleavage stood at 0.26.

Take GUUAACGGUCAUAGGCCAUGGAAACUAGGAGCACCGUUUCGCUGCCAGUGAAGAAAUGAACAAAGAAAAUCUGGGCCAGGCAGGCAUCAAAAGAAAUAGUCUUGCGCUCAACCAGAAAGUCUGUAAUCAUUCUAAGGGUA [A36G U132C]: the self-cleavage is 1.72.

GUUAACGGUCAUAGGCCAUGGAAACUAGGAGCACCAUUUCGCUGCCAGUGAAGAAAUGAACAAAGAAAAUCUGGGCCAGGCAGGCAUCAAAAGAAAUAGUCUUGCGCACAACCAGAAAGCCUGUAAUCAUUUUAAGGGUA [U108A U120C]: the self-cleavage is 0.01.

For the variant GUUAACGGUCAUAGGCCAUGGAAACUAGGAGCACCAUUUCGCUGCCAGUGAAGAAAUGAACAAAGCAAAUCUGGGCCGGGCAGGCAUCAAAAGAAAUAGUCUUGCGCUCAACCAGAAAGUCUGUAAUCAUUUUAAGGGUA [A66C A78G], the self-cleavage was 0.32.

GUUAACGGUCAUAGGCCAUGGAAACUAGGAGCACCAUUUCGCUGCCAGUGAAGAAAUGAACAAAGAAAAUCUGGGCCAGGCAGGCAUCAAAAGAAAUAGUCUUGCGCUCGACCAGGAAGUCUGUAAUCAUUUUAAGGGUA [A110G A116G]: the self-cleavage worked out at 0.06.

As to GUUAACGGUCAUAGGCCAUGGAAACUAGUAGCACCAUUUCGCUGCCAGUGAAGAAAUGAACAAAGAAAAUCUGGGCCAGGCAGGCAUCAAGAGAAAUAGUCUUGCGCUCAACCAGAAAGUCUGUAAUCAUUUUAAGGGUA [G29U A91G], the self-cleavage came out at 1.67.

In the case of GUUAACGGUCAUAGGCCAUGGAAACUAGGAGCACCAUUACGCUGCCAGUGAAGAAAUGAACAAAGAAAAUCUGGGCCAGGCGGGCAUCAAAAGAAAUAGUCUUGCGCUCAACCAGAAAGUCUGUAAUCAUUUUAAGGGUA [U39A A82G], the self-cleavage is 0.44.

As to GUUAACGGUCAUAGGCCAUGGAACCUAGGAGCACCAUUUCGCUGCCAGUGAAGAAAUGAACAAAGAAAAUCUGGGCCAGGCAGGCAUCAAAAGAAAUAGUCUUGCGCUCAACCAGAAAGUCUGUAAUCACUUUAAGGGUA [A24C U130C], the self-cleavage is 0.42.

Turning to GUUAACGGUCAUAGGCCAUGGAAACUAGGAGCACCAUUUCGCUGCCAGUGAAGAAAUGUACAAAGAAAAUCUGGGCCAGGCGGGCAUCAAAAGAAAUAGUCUUGCGCUCAACCAGAAAGUCUGUAAUCAUUUUAAGGGUA [A59U A82G], the self-cleavage was 0.43.

As for GUUAACGGUCAUAGGCCAUGGAAACUAGGAGCACCAUUUCGCUGCCAGUGAAGAAAUGAACAAAGAAAAUCUGGGCCAGGCAGGCAUCAAAAGAAAUAGUCUUGCGCUCAACCAGAAAGUCCGUAAUCAUUCUAAGGGUA [U122C U132C], the self-cleavage is 0.49.

As to GUUAACGGUCAUAGGCCAUGGAAACUACGAGCACCAUUUCGCUGCCAGUGAAGAAAUGAACAAAGAAAAUCUGGGCCAGGCAGGCAUCAAAAGAAAUAGUCUUGCGCUCAACCAGAAAGUCUGUAAUCAUUUUAAGGGUA [G28C], the self-cleavage was determined as 0.93.

Regarding GUUAACGGUCAUAGGCCAUGGAAGCUAGGAGCACCAUUUCGCUGCCAGUGAAGAAAUGAACAAAGAAAAUCUGGGCCAGGCAGGCAUCAAAAGAAAUAGUCUUGCGCUCAACCAGAAAGUCUGUAAUCAUUUUAAGGGGA [A24G U139G], the self-cleavage is 1.86.

On to GUUAACGGUCAUAGGCCAUGGAAACUAGGAGCACCAUUUCGCUGCCAGUGAAGAAAUGAACAAAGAAAAUCUGGGCCAGGCGGGCAUCAAAAGAAAUAGUCUUGCGCUCAACCAGAAAGUCUGUAAUCAUCUUAAGGGUA [A82G U131C], for which the self-cleavage is 0.45.

For GUUAACGGUCAUAGGCCAUGGAAACUAGGAGCACCAUUUCGCUGCCAGUGAAGAAAUGAACAAAGAGAAUCUGGGCCAGGCAGGCAUCAAAAGAAAUAGUCUUGCGCUCAACCAGUAAGUCUGUAAUCAUUUUAAGGGUA [A67G A116U], the self-cleavage amounted to 0.14.

GUUAACGGUCAUAGGCCAUGGAAACUAGGAGCACCAUUUCGCUGCCAGUGGAGAAAUGAACAAAGAAAAUCUGGGCCAGGCAGGCAUCAAAAGAAAUAGUCUUGUGCUCAACCAGAAAGUCUGUAAUCAUUUUAAGGGUA [A51G C105U]: the self-cleavage worked out at 0.12.

Consider GUUACCGGUCAUAGGCCAUGGAAACUAGGAGCACCAUUUCGCUGCCAGUGAAGAAAUGAACAAAGAAAAUCUGGGCCAGGCAGGCAUCAAAAGAAAUAGUCUCGCGCUCAACCAGAAAGUCUGUAAUCAUUUUAAGGGUA [A5C U103C], for which the self-cleavage stood at 1.39.

For GUUAACGGUCAUAGGCCACGGAAACCAGGAGCACCAUUUCGCUGCCAGUGAAGAAAUGAACAAAGAAAAUCUGGGCCAGGCAGGCAUCAAAAGAAAUAGUCUUGCGCUCAACCAGAAAGUCUGUAAUCAUUUUAAGGGUA [U19C U26C], the self-cleavage turned out to be 1.24.

With GUUAACGGUCAUAAGCCUUGGAAACUAGGAGCACCAUUUCGCUGCCAGUGAAGAAAUGAACAAAGAAAAUCUGGGCCAGGCAGGCAUCAAAAGAAAUAGUCUUGCGCUCAACCAGAAAGUCUGUAAUCAUUUUAAGGGUA [G14A A18U], the self-cleavage was 0.99.

GUUAACGGUCAUAGGCCAUGGAAACUAGGAGCACCAUUUUGCUGCCAGUGAAGAAAUGAACAAAGAAAAUCUGGGCCAGGCAGGCAUCAAAAGAAAUAGUCUUGCGCUCAACCAGAAAGUCAGUAAUCAUUUUAAGGGUA [C40U U122A]: the self-cleavage was found to be 1.3.

As for GUUAACGGUCAUAGGCCAUGGAAACUAGGAGCACCAUUUCGCUGCCAGUGAAGAAAUGAGCAAAGAAAUUCUGGGCCAGGCAGGCAUCAAAAGAAAUAGUCUUGCGCUCAACCAGAAAGUCUGUAAUCAUUUUAAGGGUA [A60G A69U], the self-cleavage is 1.67.

For GUUAACGGUCAUAGGCCAUGGAAACUAGGAGCACCAUUUCGCUGCCAGUGAAGAAAUGAACAAAGAAAAUCUGGGCCAGGCAGGCUUCAAAAGAAAUAGUCUUGCGCUCAACCAGAUAGUCUGUAAUCAUUUUAAGGGUA [A86U A117U], the self-cleavage turned out to be 1.56.

As to GUUAACGGUCAUAGGCCAUGGAAACUAGGAGCACCAUUUCGCUACCAGUGAAGAAAUGAACAAAGAAAAUCUGGGCCAGGCAGGCAUCAAAAGAGAUAGUCUUGCGCUCAACCAGAAAGUCUGUAAUCAUUUUAAGGGUA [G44A A95G], the self-cleavage was 1.76.

As to GUUAACGGUCAUAGGCCAUGGAAACUAGGAGCACCAUUUCGCUGCCAGUGAAGAAAUGAACAAAGAAAAUCUGGGCCAGGCUGGCAUCAAAAGAAAUAGUCUUGCGCUCAACCAGAAAGUCUGUAAUCGUUUUAAGGGUA [A82U A129G], the self-cleavage was determined as 0.08.

Consider GUUAACGGUCAUAGGCCAUGGAAACUAGGAGCACCAUUUCGCUGCCAGUGAAGAAAUGAACAAAGAAAAUCUGGGCCAGGCAGGCAUCAAAAGAAAUAGUCUUGCGCUCAACCAGAAAGUCUGUAGCCAUUUUAAGGGUA [A126G U127C], for which the self-cleavage was determined as 0.83.

In the case of GUUAACGGUCAUAGGCCAUGGAAACUAGGAGCACCAUUUCGCUGCCAGUGAAGAAAUAAACAAAGAAAAUCUGGGCCAGGCAGGCAUCAAAAGAAAUAGUCUUGCGCUCAACCAGAGAGUCUGUAAUCAUUUUAAGGGUA [G58A A117G], the self-cleavage was found to be 1.66.

In the case of GUUAACGGUCAUAGGCCAUGGAAACUAGGAGCACCAUUUCGCUGCCAGUGAAGAAAUGAACAAAGAAAAUCUGGGCCAGGCAGGCAUCAAAAGAAAUAGUCUUGCGCUCAACCAGAAAGUCUGUAAUCACUUUAAUGGUA [U130C G136U], the self-cleavage was 1.19.
